We go through six molecules from patent US20210054094A1 (Hoffmann-La Roche, published 2021).

One assay addresses T1, human GPRC5A (human, UniProt Q8NFJ5 1-357).
T1 construct: whole, on cells; also called hu GPCR5A
Briefly: cell ELISA on stably transfected CHO cells. On the procedure: (§1) Stable transfected CHO clones expressing either human GPRC5D or cynomolgus GPRC5D or murin GPRC5D or human GPRC5A were used to analyze the binding of potential lead candidate antibodies as IgGs. In detail, 10⁴ cells (viability≥98%) were seeded into 384 well-microtiter plates (BD Poly D-Lysin, #356662, volume: 25 μl/well) using fresh culture medium. After overnight incubation at 37° C., 25 μl/well dilutions of antibodies were added (15×1:3 dilutions in 1×PBS, assay conc. starts at 30 μg/ml) to the cells for 2 hours at 4° C. After one washing step using 90 μl/well PBST (10×PBS, Roche, #11666789001+0.1% Tween 20), cells were subsequently fixed by the addition of 50 μl/well 0.05% glutharaldehyde (Sigma Cat. No: G5882 in 1×PBS) for 10 min at room temperature (RT). After three additional washing steps using 90 μl/well PBST, secondary antibodies were added for detection: for human antibodies goat anti-human Ig κ chain antibody HRP conjugate (Millipore #AP502P) diluted 1:2000 in blocking buffer (1×PBS (Roche #11666789001)+2% BSA (Bovine Serum Albumin Fraction V, fatty acid free, Roche, #10735086001)+0.05% Tween 20) was used (25 μl/well). […] After incubation for 1 h at RT and three additional washing steps using 90 μl/well PBST, 25 μl/well TMB substrate was added (Roche order no. 11835033001) for 10 min and color development to final ODs was determined by measurement at 370 nm/492 nm.
(§2) Cynomolgus crossreactivity was also detected for all other antibodies but at lower levels compared to 10B10 and 07A04 (FIG. 9). No significant binding to CHO cells expressing murine GPRC5D and no binding to CHO cells expressing the human version of GPRC5A was detected (FIG. 9).

Assay [1] has as its target T2, human GPRC5D (human, UniProt Q9NZD1 1-345). Kind of assay: cell-based or functional assay.
In assay [2] the target is T2, human GPRC5D. Kind of assay: cell-based or functional assay. The source holds these as a separate data set.
For assay [3], the target named is T3, B-cell maturation antigen (BCMA) (UniProt Q02223 1-184, limits assumed).
T3 sequence (looked up): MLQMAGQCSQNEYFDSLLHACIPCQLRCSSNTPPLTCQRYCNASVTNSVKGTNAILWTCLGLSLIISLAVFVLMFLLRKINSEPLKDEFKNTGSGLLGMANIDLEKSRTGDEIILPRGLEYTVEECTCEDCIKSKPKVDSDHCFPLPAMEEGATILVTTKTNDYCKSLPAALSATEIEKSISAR
Kind of assay: cell-based or functional assay.

In another assay the target is T4, murine GPRC5D (murine, UniProt Q9JIL6 1-344).
T4 construct: whole, on cells; also called murin GPRC5D
T4 sequence (looked up): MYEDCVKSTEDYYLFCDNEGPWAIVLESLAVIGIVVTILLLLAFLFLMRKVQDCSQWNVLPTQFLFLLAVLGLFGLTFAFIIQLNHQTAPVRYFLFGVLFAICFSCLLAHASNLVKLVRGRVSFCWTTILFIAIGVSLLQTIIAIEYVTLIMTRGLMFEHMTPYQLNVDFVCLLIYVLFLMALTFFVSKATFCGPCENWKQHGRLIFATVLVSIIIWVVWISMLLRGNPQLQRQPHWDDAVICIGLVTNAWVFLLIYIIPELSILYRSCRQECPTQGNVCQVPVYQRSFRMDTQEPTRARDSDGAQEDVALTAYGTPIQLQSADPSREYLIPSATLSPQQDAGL
Briefly: cell ELISA on stably transfected CHO cells. On the procedure:
as §1, §2

T1 sequence (Q8NFJ5 whole entry): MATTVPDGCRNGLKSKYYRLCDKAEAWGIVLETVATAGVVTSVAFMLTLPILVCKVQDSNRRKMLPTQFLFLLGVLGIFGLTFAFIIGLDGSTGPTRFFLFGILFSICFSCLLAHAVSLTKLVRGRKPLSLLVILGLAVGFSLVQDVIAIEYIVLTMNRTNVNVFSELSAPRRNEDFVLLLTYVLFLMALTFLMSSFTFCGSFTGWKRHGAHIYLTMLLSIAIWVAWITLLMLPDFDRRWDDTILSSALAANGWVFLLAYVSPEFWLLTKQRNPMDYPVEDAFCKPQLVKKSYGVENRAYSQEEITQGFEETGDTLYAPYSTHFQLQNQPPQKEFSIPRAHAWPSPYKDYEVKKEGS
T2 sequence (Q9NZD1 whole entry): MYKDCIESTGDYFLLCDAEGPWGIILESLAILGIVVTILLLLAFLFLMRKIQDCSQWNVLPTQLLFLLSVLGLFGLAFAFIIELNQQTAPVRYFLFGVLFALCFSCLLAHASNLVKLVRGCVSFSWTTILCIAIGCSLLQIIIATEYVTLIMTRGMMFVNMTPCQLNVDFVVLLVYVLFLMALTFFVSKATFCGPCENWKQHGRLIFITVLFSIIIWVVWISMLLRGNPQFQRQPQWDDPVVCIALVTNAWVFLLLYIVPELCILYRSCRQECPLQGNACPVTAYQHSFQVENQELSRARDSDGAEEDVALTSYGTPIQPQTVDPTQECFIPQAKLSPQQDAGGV

B1: 5E11 IgG (antibody, V domains shown)
VH: ELQLEQSGGGLVQPGGSLTLSCAASGFTFSKYAMAWVRQAPTKGLEWVASISTGGVNTYYRDSVKARFTISRDNAKNTQYLQMDSLRSEDTATYYCATHTGDYFDYWGQGVMVTVSS
VL: DIVLTQSPALAVSPGQRATISCRASQSVSISGINLMNWYQQKPGQQPKLLIYHASILASGIPTRFSGSGSGTDFTLTIDPVQADDIATYYCQQTRESPLTFGSGTNLEIK
Turning to B1, the binding result in the assay with human GPRC5A is given as “no binding (tested: 30 µg/ml top concentration)”.

B2: 5F11-TCB (bispecific antibody, human IgG1, kappa, L234A L235A)
light 1: DIVMTQAPLSVSVTPGESASISCRSSKSLLHSNGITYVYWYFQKPGKSPQVLIYRMSNLASGVPDRFSGSGSETDFTLKISRVEAEDVGIYHCGQLLENPYTFGAGTELELKRTVAAPSVFIFPPSDRKLKSGTASVVCLLNNFYPREAKVQWKVDNALQSGNSQESVTEQDSKDSTYSLSSTLTLSKADYEKHKVYACEVTHQGLSSPVTKSFNRGEC
light 2: EVQLLESGGGLVQPGGSLRLSCAASGFTFSTYAMNWVRQAPGKGLEWVSRIRSKYNNYATYYADSVKGRFTISRDDSKNTLYLQMNSLRAEDTAVYYCVRHGNFGNSYVSWFAYWGQGTLVTVSSASVAAPSVFIFPPSDEQLKSGTASVVCLLNNFYPREAKVQWKVDNALQSGNSQESVTEQDSKDSTYSLSSTLTLSKADYEKHKVYACEVTHQGLSSPVTKSFNRGEC
heavy 1: EVQLVESGGGLVQPGRSLKLSCAASGFSFSNYGMAWVRQAATKGLEWVASISTGGGNTYYRDSVKGRFIVSRDNAKNTQYLQMDSLRSEDTATYYCTRHDRGGLYWGQGVMVTVSSASTKGPSVFPLAPSSKSTSGGTAALGCLVEDYFPEPVTVSWNSGALTSGVHTFPAVLQSSGLYSLSSVVTVPSSSLGTQTYICNVNHKPSNTKVDEKVEPKSCDKTHTCPPCPAPEAAGGPSVFLFPPKPKDTLMISRTPEVTCVVVDVSHEDPEVKFNWYVDGVEVHNAKTKPREEQYNSTYRVVSVLTVLHQDWLNGKEYKCKVSNKALGAPIEKTISKAKGQPREPQVCTLPPSRDELTKNQVSLSCAVKGFYPSDIAVEWESNGQPENNYKTTPPVLDSDGSFFLVSKLTVDKSRWQQGNVFSCSVMHEALHNHYTQKSLSLSPGK
heavy 2: not shown
As for B2, in the assay with human GPRC5D [1], the “EC50 of T cell cytotoxicity (LDH release) on AMO-1 cells” value was found to be 3 pM, the “EC50 of T cell cytotoxicity (LDH release) on L363 cells” value turned out to be 1 pM, the “EC50 of T cell cytotoxicity (LDH release) on NCI-H929 cells” value is 1 pM and the “EC50 of T cell cytotoxicity (LDH release) on RPMI-8226 cells” value was 2 pM. In the assay with human GPRC5D [2], the “EC50 of in vitro killing, AMO-1 cells” value was found to be 6 pM; the “EC50 of in vitro killing, EJM cells” value was 3 pM; the “EC50 of in vitro killing, L363 cells” value was 3 pM; the “EC50 of in vitro killing, MOLP-2 cells” value came out at 1 pM. In the assay with human GPRC5D [2], the “EC50 of in vitro killing, NCI-H929 cells” value stood at 4 pM; the “EC50 of in vitro killing, OPM-2 cells” value came out at 1 pM; the “EC50 of in vitro killing, RPMI cells” value stood at 6 pM.

B3: BCMA-TCB (bispecific antibody, human IgG1, kappa, L234A L235A)
heavy 1: EVQLLESGGGLVQPGGSLRLSCAASGFTFSSYAMNWVRQAPGKGLEWVSAITASGGSTYYADSVKGRFTISRDNSKNTLYLQMNSLRAEDTAVYYCARYWPMSLWGQGTLVTVSSASTKGPSVFPLAPSSKSTSGGTAALGCLVEDYFPEPVTVSWNSGALTSGVHTFPAVLQSSGLYSLSSVVTVPSSSLGTQTYICNVNHKPSNTKVDEKVEPKSCDKTHTCPPCPAPEAAGGPSVFLFPPKPKDTLMISRTPEVTCVVVDVSHEDPEVKFNWYVDGVEVHNAKTKPREEQYNSTYRVVSVLTVLHQDWLNGKEYKCKVSNKALGAPIEKTISKAKGQPREPQVCTLPPSRDELTKNQVSLSCAVKGFYPSDIAVEWESNGQPENNYKTTPPVLDSDGSFFLVSKLTVDKSRWQQGNVFSCSVMHEALHNHYTQKSLSLSPGK
light 1: EIVLTQSPGTLSLSPGERATLSCRASQSVSAYYLAWYQQKPGQAPRLLMYDASIRATGIPDRFSGSGSGTDFTLTISRLEPEDFAVYYCQQYERWPLTFGQGTKVEIKRTVAAPSVFIFPPSDRKLKSGTASVVCLLNNFYPREAKVQWKVDNALQSGNSQESVTEQDSKDSTYSLSSTLTLSKADYEKHKVYACEVTHQGLSSPVTKSFNRGEC
heavy 2: not shown
light 2: EVQLLESGGGLVQPGGSLRLSCAASGFTFSTYAMNWVRQAPGKGLEWVSRIRSKYNNYATYYADSVKGRFTISRDDSKNTLYLQMNSLRAEDTAVYYCVRHGNFGNSYVSWFAYWGQGTLVTVSSASVAAPSVFIFPPSDEQLKSGTASVVCLLNNFYPREAKVQWKVDNALQSGNSQESVTEQDSKDSTYSLSSTLTLSKADYEKHKVYACEVTHQGLSSPVTKSFNRGEC
On to B3, for which, in assay [3], the “EC50 of in vitro killing, AMO-1 cells” value amounted to 518 pM; the “EC50 of in vitro killing, EJM cells” value turned out to be 132 pM; the “EC50 of in vitro killing, L363 cells” value amounted to 127 pM; the “EC50 of in vitro killing, MOLP-2 cells” value was 32 pM. Further, in assay [3], the “EC50 of in vitro killing, NCI-H929 cells” value worked out at 311 pM; the “EC50 of in vitro killing, OPM-2 cells” value was determined as 33 pM; the “EC50 of in vitro killing, RPMI cells” value is 11 pM.

B4: 10B10 IgG (antibody, V domains shown)
VH: EVQLVESGGGLVQPGRSMKLSCAASGFTFTNFYMAWVRQAPTKALEWVASINTGGGYTYYRDSVKGRFTVSRDNTRSTLYLQMDSLRSEETATYYCARHLTYYGRYYYFDYWGQGVMVTVSS
VL: DIQLTQSPHSLSASLGETVSIECLASEGISNYLAWFHQKPGKSPQLLIYYASSLQDGVPSRFSGSGSGTQYSLKISNMQPEDEGVYYCQQGYKYPLTFGSGTKLEIK
notes: also called rat IgG 10B10
Regarding B4, the binding result with murine GPRC5D and with human GPRC5A was “no binding (tested: 30 µg/ml top concentration)” in each case.

B5: 5F11 IgG (antibody, V domains shown)
VH: EVQLVESGGGLVQPGRSLKLSCAASGFSFSNYGMAWVRQAATKGLEWVASISTGGGNTYYRDSVKGRFIVSRDNAKNTQYLQMDSLRSEDTATYYCTRHDRGGLYWGQGVMVTVSS
VL: DIVMTQAPLSVSVTPGESASISCRSSKSLLHSNGITYVYWYFQKPGKSPQVLIYRMSNLASGVPDRFSGSGSETDFTLKISRVEAEDVGIYHCGQLLENPYTFGAGTELELK
On to B5, for which the binding result with human GPRC5A was “no binding (tested: 30 µg/ml top concentration)”.

B6: 07A04 IgG (antibody, V domains shown)
VH: QVTLKESGPGILQPSHTLSLTCSFSGFSLSTYGMGVNWIRQPSGKGLEWLASIWWNGNTYNNPSLKSRLTVSKDTSNNQAFLKVTSVDTADTATYYCVHTRGIIRGRGLFFDYWGQGVMVTVSS
VL: DVQMTQSPYNLAASPGESVSINCKASKSISKYLAWYQQKPGKANKLLIYDGSTLQSGIPSRFSGSGSGTDFTLTIRSLEPEDFGLYYCQQHNEYPLTFGSGTKLEIKR
notes: also called rat IgG 07A04
In the case of B6, the binding result with murine GPRC5D and in the assay with human GPRC5A was “no binding (tested: 30 µg/ml top concentration)” each time.
